# Results published in the supplement of paper PMC9112550, “Optimization of the antimicrobial peptide Bac7 by deep mutational scanning” (BMC Biology, 2022).
# System: Escherichia coli TOP10
# Assay: shrunken log2 fold change of peptide-encoding DNA abundance (4.5 h post-induction vs induction); higher = less antimicrobial activity (less host growth inhibition)
# Conditions: time post-induction: 4.5 h; library: site-saturation at positions 5, 18, 19, 20
# 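Also: peptides expressed intracellularly from a pBAD plasmid library in pooled LB shake-flask culture, induced with 0.3% L-arabinose, DNA abundance read by NGS, three biological replicates, DESeq2 with apeglm shrinkage.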
row,Sequence,shrunken log2 fold change
1,RRIRMRPPRLPRPRPRPTCFPRP,0.105
2,RRIRMRPPRLPRPRPRPTCKPRP,2.25
3,RRIRMRPPRLPRPRPRPTGEPRP,0.0299
4,RRIRMRPPRLPRPRPRPTIDPRP,0.0912
5,RRIRMRPPRLPRPRPRPTITPRP,0.114
6,RRIRMRPPRLPRPRPRPTIVPRP,-0.0671
7,RRIRMRPPRLPRPRPRPTKDPRP,0.277
8,RRIRMRPPRLPRPRPRPTLEPRP,0.259
9,RRIRMRPPRLPRPRPRPTLFPRP,0.428
10,RRIRMRPPRLPRPRPRPTLMPRP,0.0126
11,RRIRMRPPRLPRPRPRPTMGPRP,0.253
12,RRIRMRPPRLPRPRPRPTPLPRP,1.01
13,RRIRMRPPRLPRPRPRPTQCPRP,0.00706
14,RRIRMRPPRLPRPRPRPTQEPRP,0.433
15,RRIRMRPPRLPRPRPRPTQIPRP,0.386
16,RRIRMRPPRLPRPRPRPTRVPRP,0.25
17,RRIRMRPPRLPRPRPRPTSKPRP,0.0886
18,RRIRMRPPRLPRPRPRPTTWPRP,0.745
19,RRIRMRPPRLPRPRPRPTVEPRP,3.68
20,RRIRMRPPRLPRPRPRPTVIPRP,-0.271
21,RRIRMRPPRLPRPRPRPVAEPRP,2.88
22,RRIRMRPPRLPRPRPRPVAGPRP,1.31

row,Sequence,shrunken log2 fold change
1,RRIRMRPPRLPRPRPRPVAMPRP,0.57
2,RRIRMRPPRLPRPRPRPVAPPRP,0.945
3,RRIRMRPPRLPRPRPRPVCCPRP,0.496
4,RRIRMRPPRLPRPRPRPVDSPRP,0.216
5,RRIRMRPPRLPRPRPRPVEIPRP,0.00438
6,RRIRMRPPRLPRPRPRPVENPRP,-0.0952
7,RRIRMRPPRLPRPRPRPVFMPRP,-0.202
8,RRIRMRPPRLPRPRPRPVFYPRP,-0.0165
9,RRIRMRPPRLPRPRPRPVHWPRP,0.155
10,RRIRMRPPRLPRPRPRPVIEPRP,-0.0535
11,RRIRMRPPRLPRPRPRPVIQPRP,0.257
12,RRIRMRPPRLPRPRPRPVKCPRP,-0.0525
13,RRIRMRPPRLPRPRPRPVKMPRP,-0.124
14,RRIRMRPPRLPRPRPRPVLHPRP,-0.309
15,RRIRMRPPRLPRPRPRPVLLPRP,0.291
16,RRIRMRPPRLPRPRPRPVLWPRP,0.847
17,RRIRMRPPRLPRPRPRPVPFPRP,0.179
18,RRIRMRPPRLPRPRPRPVQKPRP,0.069
19,RRIRMRPPRLPRPRPRPVQQPRP,0.113
20,RRIRMRPPRLPRPRPRPVREPRP,1.19
21,RRIRMRPPRLPRPRPRPVRPPRP,1.76
22,RRIRMRPPRLPRPRPRPVSAPRP,0.617

row,Sequence,shrunken log2 fold change
1,RRIRMRPPRLPRPRPRPVSKPRP,0.0965
2,RRIRMRPPRLPRPRPRPVTFPRP,-0.0159
3,RRIRMRPPRLPRPRPRPVWSPRP,0.709
4,RRIRMRPPRLPRPRPRPVYHPRP,-0.435
5,RRIRMRPPRLPRPRPRPVYRPRP,-0.174
6,RRIRMRPPRLPRPRPRPWAEPRP,0.628
7,RRIRMRPPRLPRPRPRPWAKPRP,0.0317
8,RRIRMRPPRLPRPRPRPWDNPRP,0.013
9,RRIRMRPPRLPRPRPRPWDVPRP,0.0498
10,RRIRMRPPRLPRPRPRPWHVPRP,-0.0444
11,RRIRMRPPRLPRPRPRPWKGPRP,-0.00192
12,RRIRMRPPRLPRPRPRPWLEPRP,-0.00871
13,RRIRMRPPRLPRPRPRPWLGPRP,0.221
14,RRIRMRPPRLPRPRPRPWPAPRP,0.807
15,RRIRMRPPRLPRPRPRPWSEPRP,0.0897
16,RRIRMRPPRLPRPRPRPWTLPRP,-0.0343
17,RRIRMRPPRLPRPRPRPWTNPRP,-0.01
18,RRIRMRPPRLPRPRPRPWTRPRP,-0.00172
19,RRIRMRPPRLPRPRPRPWVAPRP,0.109
20,RRIRMRPPRLPRPRPRPWVWPRP,0.169
21,RRIRMRPPRLPRPRPRPYCDPRP,-0.556
22,RRIRMRPPRLPRPRPRPYCPPRP,-0.066

row,Sequence,shrunken log2 fold change
1,RRIRMRPPRLPRPRPRPYDGPRP,-0.0589
2,RRIRMRPPRLPRPRPRPYFCPRP,-0.352
3,RRIRMRPPRLPRPRPRPYFFPRP,-0.175
4,RRIRMRPPRLPRPRPRPYGIPRP,-0.0497
5,RRIRMRPPRLPRPRPRPYHFPRP,-0.16
6,RRIRMRPPRLPRPRPRPYHSPRP,-0.0421
7,RRIRMRPPRLPRPRPRPYIQPRP,-1.05
8,RRIRMRPPRLPRPRPRPYKHPRP,-0.872
9,RRIRMRPPRLPRPRPRPYKTPRP,0.0261
10,RRIRMRPPRLPRPRPRPYNHPRP,-0.491
11,RRIRMRPPRLPRPRPRPYNPPRP,-0.21
12,RRIRMRPPRLPRPRPRPYRMPRP,-0.219
13,RRIRMRPPRLPRPRPRPYTDPRP,-0.161
14,RRIRMRPPRLPRPRPRPYTFPRP,-0.0434
15,RRIRMRPPRLPRPRPRPYTSPRP,-0.265
16,RRIRMRPPRLPRPRPRPYVDPRP,-0.249
17,RRIRMRPPRLPRPRPRPYVIPRP,-0.125
18,RRIRMRPPRLPRPRPRPYWFPRP,-0.131
19,RRIRMRPPRLPRPRPRPYWLPRP,-0.0329
20,RRIRMRPPRLPRPRPRPYYVPRP,-0.0412
21,RRIRNRPPRLPRPRPRPAEMPRP,-0.00992
22,RRIRNRPPRLPRPRPRPAENPRP,-0.0634

row,Sequence,shrunken log2 fold change
1,RRIRNRPPRLPRPRPRPAFIPRP,-0.579
2,RRIRNRPPRLPRPRPRPAGSPRP,0.086
3,RRIRNRPPRLPRPRPRPAHCPRP,-0.424
4,RRIRNRPPRLPRPRPRPALSPRP,0.0962
5,RRIRNRPPRLPRPRPRPAMAPRP,0.0129
6,RRIRNRPPRLPRPRPRPANYPRP,-0.0161
7,RRIRNRPPRLPRPRPRPAQEPRP,0.0303
8,RRIRNRPPRLPRPRPRPAQHPRP,0.00182
9,RRIRNRPPRLPRPRPRPAQTPRP,-0.0137
10,RRIRNRPPRLPRPRPRPARFPRP,0.0266
11,RRIRNRPPRLPRPRPRPARWPRP,0.531
12,RRIRNRPPRLPRPRPRPASLPRP,0.0991
13,RRIRNRPPRLPRPRPRPASWPRP,0.369
14,RRIRNRPPRLPRPRPRPATTPRP,0.272
15,RRIRNRPPRLPRPRPRPAVAPRP,0.339
16,RRIRNRPPRLPRPRPRPAWMPRP,0.056
17,RRIRNRPPRLPRPRPRPAWSPRP,0.0515
18,RRIRNRPPRLPRPRPRPAYRPRP,0.105
19,RRIRNRPPRLPRPRPRPAYSPRP,-0.189
20,RRIRNRPPRLPRPRPRPCAKPRP,-0.0333
21,RRIRNRPPRLPRPRPRPCASPRP,-0.106
